Target: T1, IE2 (IE86) MBP fusion (Human cytomegalovirus, UniProt P19893 P19893:1-580)
T1 sequence: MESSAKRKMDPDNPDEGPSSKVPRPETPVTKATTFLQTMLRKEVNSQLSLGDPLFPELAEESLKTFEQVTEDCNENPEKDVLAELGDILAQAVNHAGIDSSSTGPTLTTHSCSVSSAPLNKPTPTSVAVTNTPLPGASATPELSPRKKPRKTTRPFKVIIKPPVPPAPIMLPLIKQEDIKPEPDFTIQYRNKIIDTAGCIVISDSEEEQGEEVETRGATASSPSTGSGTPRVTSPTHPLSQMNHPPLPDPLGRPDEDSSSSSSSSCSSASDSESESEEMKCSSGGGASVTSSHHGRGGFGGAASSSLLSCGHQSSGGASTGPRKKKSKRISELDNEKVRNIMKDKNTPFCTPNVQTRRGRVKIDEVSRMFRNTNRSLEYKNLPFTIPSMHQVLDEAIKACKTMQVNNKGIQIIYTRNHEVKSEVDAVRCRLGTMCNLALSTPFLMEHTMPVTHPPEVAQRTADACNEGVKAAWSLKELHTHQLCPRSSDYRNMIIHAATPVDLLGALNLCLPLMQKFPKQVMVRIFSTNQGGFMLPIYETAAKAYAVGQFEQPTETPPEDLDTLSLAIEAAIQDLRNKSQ
Assay: EMSA; IE2-CRS EMSA in presence of various amounts of Hoechst 33258 (BB33258); exact probe sequence not stated, CRS core given
Settings: tags: MBP fusion, expressed in E. coli BL21, amylose column

B1: hCMV CRS (IE2 binding site) (dsDNA)
DNA 1: TCGTTTAGTGAACCG
DNA 2: CGGTTCACTAAACGA
  binding result: binds

From US20170360778, “Methods for Treating a Cytomegalovirus Infection” (The J. David Gladstone Institutes, published 2017)
